One molecule from patent US20110166062A1 can be followed below.

Where no end group is shown, it is not given here. [ ]: non-standard residue; d: D form. The star is where a group is joined. Palmitoyl = CCCCCCCCCCCCCCCC(=O)*; Aib = CC(C)(N)C(=O)O

As a reminder, the EC50 is the concentration at which the effect is half-maximal. Read a low EC50 as higher potency in that assay.

Common to all, as to assay: cell-based or functional assay
For experiment [1], the target named is glucagon receptor, P47871.
For another experiment, the target named is T1, GLP-1 receptor, P43220.
T1 chain: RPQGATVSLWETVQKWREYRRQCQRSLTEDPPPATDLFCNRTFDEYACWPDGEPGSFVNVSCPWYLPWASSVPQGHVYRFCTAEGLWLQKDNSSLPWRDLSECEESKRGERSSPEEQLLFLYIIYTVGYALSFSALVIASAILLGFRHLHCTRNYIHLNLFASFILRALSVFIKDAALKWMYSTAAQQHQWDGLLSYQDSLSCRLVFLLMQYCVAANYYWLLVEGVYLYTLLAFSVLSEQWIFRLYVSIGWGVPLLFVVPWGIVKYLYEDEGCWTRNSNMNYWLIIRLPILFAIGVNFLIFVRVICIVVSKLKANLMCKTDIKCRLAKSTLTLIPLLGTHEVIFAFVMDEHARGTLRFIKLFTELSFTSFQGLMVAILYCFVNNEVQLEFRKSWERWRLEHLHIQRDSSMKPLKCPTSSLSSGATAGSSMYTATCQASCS

For another experiment, the target named is T2, GIP receptor, P48546.
T2 chain: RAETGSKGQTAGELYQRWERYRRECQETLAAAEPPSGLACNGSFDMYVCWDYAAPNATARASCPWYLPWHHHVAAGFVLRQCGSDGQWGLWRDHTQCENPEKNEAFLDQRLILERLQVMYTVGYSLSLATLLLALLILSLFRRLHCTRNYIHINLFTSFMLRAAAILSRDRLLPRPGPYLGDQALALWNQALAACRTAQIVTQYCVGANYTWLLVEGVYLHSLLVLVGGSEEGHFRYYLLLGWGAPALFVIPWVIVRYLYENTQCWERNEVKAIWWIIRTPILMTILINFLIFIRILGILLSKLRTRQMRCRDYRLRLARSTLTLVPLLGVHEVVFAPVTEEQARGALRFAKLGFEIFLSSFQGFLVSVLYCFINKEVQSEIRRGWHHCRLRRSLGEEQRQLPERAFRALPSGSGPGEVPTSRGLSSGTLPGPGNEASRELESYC

Sequence of glucagon receptor, P47871 (P47871 26-477 limits assumed): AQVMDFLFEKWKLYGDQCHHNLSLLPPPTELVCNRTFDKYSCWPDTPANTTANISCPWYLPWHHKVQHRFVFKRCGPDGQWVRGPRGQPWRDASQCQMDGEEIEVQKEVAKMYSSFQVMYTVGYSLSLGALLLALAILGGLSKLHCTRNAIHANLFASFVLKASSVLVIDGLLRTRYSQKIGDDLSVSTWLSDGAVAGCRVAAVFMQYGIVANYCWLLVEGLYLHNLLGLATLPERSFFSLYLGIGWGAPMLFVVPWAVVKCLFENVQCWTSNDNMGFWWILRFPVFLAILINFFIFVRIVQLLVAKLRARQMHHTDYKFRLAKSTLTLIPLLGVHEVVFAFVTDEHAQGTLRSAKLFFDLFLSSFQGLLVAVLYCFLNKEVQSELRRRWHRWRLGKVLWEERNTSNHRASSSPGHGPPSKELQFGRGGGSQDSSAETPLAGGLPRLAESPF

B1: mt-297 (peptide)
peptide: Y[Aib]QGTFTSDYSIYLDKQAA[Aib]EFVCWLMNGGPSSGAPPPSK(Palmitoyl)-NH2
modifications: N-terminus assumed
SMILES: CCCCCCCCCCCCCCCC(=O)NCCCC[C@H](NC(=O)[C@H](CO)NC(=O)[C@@H]1CCCN1C(=O)[C@@H]1CCCN1C(=O)[C@@H]1CCCN1C(=O)[C@H](C)NC(=O)CNC(=O)[C@H](CO)NC(=O)[C@H](CO)NC(=O)[C@@H]1CCCN1C(=O)CNC(=O)CNC(=O)[C@H](CC(N)=O)NC(=O)[C@H](CCSC)NC(=O)[C@H](CC(C)C)NC(=O)[C@H](Cc1c[nH]c2ccccc12)NC(=O)[C@H](CS)NC(=O)[C@@H](NC(=O)[C@H](Cc1ccccc1)NC(=O)[C@H](CCC(=O)O)NC(=O)C(C)(C)NC(=O)[C@H](C)NC(=O)[C@H](C)NC(=O)[C@H](CCC(N)=O)NC(=O)[C@H](CCCCN)NC(=O)[C@H](CC(=O)O)NC(=O)[C@H](CC(C)C)NC(=O)[C@H](Cc1ccc(O)cc1)NC(=O)[C@@H](NC(=O)[C@H](CO)NC(=O)[C@H](Cc1ccc(O)cc1)NC(=O)[C@H](CC(=O)O)NC(=O)[C@H](CO)NC(=O)[C@@H](NC(=O)[C@H](Cc1ccccc1)NC(=O)[C@@H](NC(=O)CNC(=O)[C@H](CCC(N)=O)NC(=O)C(C)(C)NC(=O)[C@@H](N)Cc1ccc(O)cc1)[C@@H](C)O)[C@@H](C)O)[C@@H](C)CC)C(C)C)C(N)=O
With B1, the EC50 was found to be 13.2 pM in experiment [1]; 12.9 pM with GLP-1 receptor, P43220; 16.8 pM in the experiment with GIP receptor, P48546.
